Test results reported in PMC8079763 (2021).

T1: GST tagged ecto-basigin (recombinant mouse basigin) (mouse (C57BL/6J), UniProt P18572 22-325)
T1 chain: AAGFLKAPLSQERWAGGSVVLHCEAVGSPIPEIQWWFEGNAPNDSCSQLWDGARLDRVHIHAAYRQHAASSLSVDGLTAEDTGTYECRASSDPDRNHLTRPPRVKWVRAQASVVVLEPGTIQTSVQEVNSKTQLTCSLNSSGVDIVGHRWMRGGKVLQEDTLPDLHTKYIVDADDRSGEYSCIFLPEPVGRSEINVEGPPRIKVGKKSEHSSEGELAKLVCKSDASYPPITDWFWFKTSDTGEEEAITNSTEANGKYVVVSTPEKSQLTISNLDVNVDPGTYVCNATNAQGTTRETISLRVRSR

B1: recombinant PyEBL R2, the N-terminal Cys-rich Duffy binding-like region (E113-G437) (domain or fragment)
chain: EKNGNVNYKDYFDKYQVNECKEKNKNEIHAWICDNEKQNCIPSRRINLCTKRLEIIPDTIKIPDNKTKELLMDYFKQFIYKDAAREGELLLNKYDDKNNNEYCNDMINSFGDYKNIVEGTGLKNVANESLLELKIQNIFGTDDNAKRNRKTWWKNHEHIVWKAMVLGKNFNETSNYKNVCTNYKLEDYHSQIERWTREWIQEFSVQYFKEANKINNKCTKKSNISTESICINNECKNACNTYEAWISVNKSKWDTLLQRFSQFNKSYFSEETCRDKAYNSLMIEFKEAYEANFENVINLDDDHYTGLCVCSSVKPSNTPINNNLG
B2: recombinant PyEBL R1-2 (amino acid V28-G437) (domain or fragment)
chain: VNLLKRTYESFQSFPLKNNSGNRILYELKESLYNIENGETWGDLVSKDNEIFGGKDHILSENYTSDSVNSKKESNFLETGKISLVEKNGNVNYKDYFDKYQVNECKEKNKNEIHAWICDNEKQNCIPSRRINLCTKRLEIIPDTIKIPDNKTKELLMDYFKQFIYKDAAREGELLLNKYDDKNNNEYCNDMINSFGDYKNIVEGTGLKNVANESLLELKIQNIFGTDDNAKRNRKTWWKNHEHIVWKAMVLGKNFNETSNYKNVCTNYKLEDYHSQIERWTREWIQEFSVQYFKEANKINNKCTKKSNISTESICINNECKNACNTYEAWISVNKSKWDTLLQRFSQFNKSYFSEETCRDKAYNSLMIEFKEAYEANFENVINLDDDHYTGLCVCSSVKPSNTPINNNLG
B3: recombinant PyEBL ectodomain spanning region 1 to region 6 (PyEBL R1-6; amino acids V28-N788) (domain or fragment)
chain: VNLLKRTYESFQSFPLKNNSGNRILYELKESLYNIENGETWGDLVSKDNEIFGGKDHILSENYTSDSVNSKKESNFLETGKISLVEKNGNVNYKDYFDKYQVNECKEKNKNEIHAWICDNEKQNCIPSRRINLCTKRLEIIPDTIKIPDNKTKELLMDYFKQFIYKDAAREGELLLNKYDDKNNNEYCNDMINSFGDYKNIVEGTGLKNVANESLLELKIQNIFGTDDNAKRNRKTWWKNHEHIVWKAMVLGKNFNETSNYKNVCTNYKLEDYHSQIERWTREWIQEFSVQYFKEANKINNKCTKKSNISTESICINNECKNACNTYEAWISVNKSKWDTLLQRFSQFNKSYFSEETCRDKAYNSLMIEFKEAYEANFENVINLDDDHYTGLCVCSSVKPSNTPINNNLGYKQTLETQNPTDASQNTLFPPFSTGTETDLFKEDDDDNGGFDLLSYNNADAQNLRNSTPTDQVGVNNEQNKLNQNAESNNKYELQIMGNHANSDNTYHNIIIPSQENNIYTSTPESVTINPTSTSNTNENQTLTPNSTLTPTLTSNSNPTQIPTQPQPQFPIPPQPQFPIPPETQFPIPPETQIPTPTLNPNATNKGVKEHHFNTNGIENGNTMKDQMNIPPIKFNIDPKHDNTINGGFSRINNDNDSENANKLGIDEYEHRDIKKSRENIIMLANENVCNGNPGLKYCESINNKYFHGTCSKSQTQNLCCSISNYCIKFFNINSKKYYDCMNEEFMAPDYNCFQKESYSN

Target: T1, GST tagged ecto-basigin (recombinant …)
Test: SPR

Compared with B1, B2 is 6.9-fold higher in koff: 0.00104 s⁻¹ for the first, 0.00713 s⁻¹ for the second.

Work on B3 yielded a koff of 0.00106 s⁻¹.

target: GST tagged ecto-basigin (recombinant mouse basigin) (mouse (C57BL/6J)) (UniProt P18572); test: SPR; Biacore X100; recombinant mouse basigin (GST tagged) immobilised on CM5 chip by amine coupling; PyEBL regions as analytes; HBS-EP+ (10 mM HEPES pH 7.4, 150 mM NaCl, 3 mM EDTA, 0.05% P20); single-cycle kinetics, 1:1 binding model

“recombinant PyEBL ectodomain spanning region 1 to region 6 (PyEBL R1-6; amino acids V28-N788) (domain or fragment)” and “recombinant PyEBL R2, the N-terminal Cys-rich Duffy binding-like region (E113-G437) (domain or fragment)” are within 1.5-fold of each other in Kd: 33 nM for the first, 34 nM for the second.

Compared with “recombinant PyEBL R1-2 (amino acid V28-G437) (domain or fragment)”, “recombinant PyEBL C351Y (domain or fragment)” is 1.6-fold higher in Kd: 16 nM for the first, 26 nM for the second.
